The nature of the data set: total protein half-life in vivo (active degradation + dilution); higher = more stable protein.
Where [1] appears, read: E. coli NCM3722 delta-clpP delta-lon delta-hslV, growth: N-lim chemostat, doubling time 6 h.
The mark [2] stands for this setting: E. coli NCM3722 delta-clpP, growth: N-lim chemostat, doubling time 6 h.
Setting [3] is: E. coli NCM3722 delta-hslV, growth: N-lim chemostat, doubling time 6 h.
[4] abbreviates: E. coli NCM3722 delta-lon, growth: N-lim chemostat, doubling time 6 h.
Where [5] appears, read: E. coli NCM3722 delta-smpB, growth: N-lim chemostat, doubling time 6 h.
Where [6] appears, read: wild type E. coli NCM3722, growth: C-lim chemostat, doubling time 3 h.
[7] abbreviates: wild type E. coli NCM3722, growth: C-lim chemostat, doubling time 6 h.
Where [8] appears, read: wild type E. coli NCM3722, growth: C-lim chemostat, doubling time 12 h.
The mark [9] stands for this setting: wild type E. coli NCM3722, growth: N-lim chemostat, doubling time 6 h.
Where [10] appears, read: wild type E. coli NCM3722, growth: N-lim chemostat, doubling time 12 h.
Where [11] appears, read: wild type E. coli NCM3722, growth: P-lim chemostat, doubling time 6 h.
The mark [12] stands for this setting: wild type E. coli NCM3722, growth: P-lim chemostat, doubling time 12 h.

Experimental findings from the supplement of paper PMC11246515 are described below.

± gives the standard deviation of the averaged measurements.

Turning to “MQENQQITKKEQYNLNKLQKRLRRNVGEAIADFNMIEEGDRIMVCLSGGKDSYTMLEILRNLQQSAPINFSLVAVNLDQKQPGFPEHVLPEYLEKLGVEYKIVEENTYGIVKEKIPEGKTTCSLCSRLRRGILYRTATELGATKIALGHHRDDILQTLFLNMFYGGKMKGMPPKLMSDDGKHIVIRPLAYCREKDIQRFADAKAFPIIPCNLCGSQPNLQRQVIADMLRDWDKRYPGRIETMFSAMQNVVPSHLCDTNLFDFKGITHGSEVVNGGDLAFDREEIPLQPACWQPEEDENQLDELRLNVVEVK”, the “total protein half-life in vivo” value runs as follows: under setting [1], 5.11 ± 0.8 h; under setting [2], 3.63 ± 0.23 h; under setting [3], 0.983 ± 0.28 h; under setting [4], 1.44 h; under setting [5], 1.0485 ± 0.00067 h; under setting [6], 1.63 ± 0.051 h. Besides, the “total protein half-life in vivo” value reads like this: under setting [7], 2.26 ± 0.035 h; under setting [8], 2.85 ± 0.35 h; under setting [9], 1.26 h; under setting [10], 1.58 ± 0.57 h; under setting [11], 2.23 ± 0.24 h; under setting [12], 4.26 ± 0.73 h.

As to “MSNKNVNVRKSQEITFCLLAGILMFMAMMVAGRAEAGVALGATRVIYPAGQKQEQLAVTNNDENSTYLIQSWVENADGVKDGRFIVTPPLFAMKGKKENTLRILDATNNQLPQDRESLFWMNVKAIPSMDKSKLTENTLQLAIISRIKLYYRPAKLALPPDQAAEKLRFRRSANSLTLINPTPYYLTVTELNAGTRVLENALVPPMGESTVKLPSDAGSNITYRTINDYGALTPKMTGVME”, the “total protein half-life in vivo” value reads like this: under setting [1], 4.77 h; under setting [5], 5.38 ± 0.18 h; under setting [7], 5.55 ± 0.66 h; under setting [8], greater than 16 h; under setting [9], 7.84 h; under setting [10], 14.8 h. Moreover, the “total protein half-life in vivo” value reads like this: under setting [11], 5.67 h; under setting [12], 13.2 ± 3 h.

Consider “MKFVKYFLILAVCCILLGAGSIYGLYRYIEPQLPDVATLKDVRLQIPMQIYSADGELIAQYGEKRRIPVTLDQIPPEMVKAFIATEDSRFYEHHGVDPVGIFRAASVALFSGHASQGASTITQQLARNFFLSPERTLMRKIKEVFLAIRIEQLLTKDEILELYLNKIYLGYRAYGVGAAAQVYFGKTVDQLTLNEMAVIAGLPKAPSTFNPLYSMDRAVARRNVVLSRMLDEGYITQQQFDQTRTEAINANYHAPEIAFSAPYLSEMVRQEMYNRYGESAYEDGYRIYTTITRKVQQAAQQAVRNNVLDYDMRHGYRGPANVLWKVGESAWDNNKITDTLKALPTYGPLLPAAVTSANPQQATAMLADGSTVALSMEGVRWARPYRSDTQQGPTPRKVTDVLQTGQQIWVRQVGDAWWLAQVPEVNSALVSINPQNGAVMALVGGFDFNQSKFNRATQALRQVGSNIKPFLYTAAMDKGLTLASMLNDVPISRWDASAGSDWQPKNSPPQYAGPIRLRQGLGQSKNVVMVRAMRAMGVDYAAEYLQRFGFPAQNIVHTESLALGSASFTPMQVARGYAVMANGGFLVDPWFISKIENDQGGVIFEAKPKVACPECDIPVIYGDTQKSNVLENNDVEDVAISREQQNVSVPMPQLEQANQALVAKTGAQEYAPHVINTPLAFLIKSALNTNIFGEPGWQGTGWRAGRDLQRRDIGGKTGTTNSSKDAWFSGYGPGVVTSVWIGFDDHRRNLGHTTASGAIKDQISGYEGGAKSAQPAWDAYMKAVLEGVPEQPLTPPPGIVTVNIDRSTGQLANGGNSREEYFIEGTQPTQQAVHEVGTTIIDNGEAQELF”, for which the “total protein half-life in vivo” value reads like this: under setting [1], 5.593 ± 0.05 h; under setting [2], 5.49 ± 0.056 h; under setting [3], 5.4453 ± 0.0032 h; under setting [4], 6.37 ± 1.3 h; under setting [5], 5.3 ± 0.31 h; under setting [6], 3.35 ± 0.36 h. Moreover, the “total protein half-life in vivo” value is, setting by setting: under setting [7], 5.7 ± 0.38 h; under setting [8], 10.82 ± 0.022 h; under setting [9], 5.08 ± 0.37 h; under setting [10], 10.2 ± 0.59 h; under setting [11], 4.46 ± 0.3 h; under setting [12], 7.61 ± 0.27 h.

Regarding “MSTLGHQYDNSLVSNAFGFLRLPMNFQPYDSDADWVITGVPFDMATSGRAGGRHGPAAIRQVSTNLAWEHNRFPWNFDMRERLNVVDCGDLVYAFGDAREMSEKLQAHAEKLLAAGKRMLSFGGDHFVTLPLLRAHAKHFGKMALVHFDAHTDTYANGCEFDHGTMFYTAPKEGLIDPNHSVQIGIRTEFDKDNGFTVLDACQVNDRSVDDVIAQVKQIVGDMPVYLTFDIDCLDPAFAPGTGTPVIGGLTSDRAIKLVRGLKDLNIVGMDVVEVAPAYDQSEITALAAATLALEMLYIQAAKKGE”, the “total protein half-life in vivo” value was found to be 6.58 ± 1 h under setting [1]; 5.85 ± 0.27 h under setting [2]; 5.33 ± 0.076 h under setting [3]; 7.38 ± 0.48 h under setting [4]; 5.82 ± 0.58 h under setting [5]; 2.9 ± 0.36 h under setting [6]. In addition, the “total protein half-life in vivo” value is, setting by setting: under setting [7], 6.205 ± 0.019 h; under setting [8], 11.8 ± 0.43 h; under setting [9], 6.72 ± 0.96 h; under setting [10], 11.9 h; under setting [11], 6.0955 ± 0.0043 h; under setting [12], 12.2 ± 1.3 h.

As for “MADTRPERRFTRIDRLPPYVFNITAELKMAARRRGEDIIDFSMGNPDGATPPHIVEKLCTVAQRPDTHGYSTSRGIPRLRRAISRWYQDRYDVEIDPESEAIVTIGSKEGLAHLMLATLDHGDTVLVPNPSYPIHIYGAVIAGAQVRSVPLVEGVDFFNELERAIRESYPKPKMMILGFPSNPTAQCVELEFFEKVVALAKRYDVLVVHDLAYADIVYDGWKAPSIMQVPGARDVAVEFFTLSKSYNMAGWRIGFMVGNKTLVSALARIKSYHDYGTFTPLQVAAIAALEGDQQCVRDIAEQYKRRRDVLVKGLHEAGWMVEMPKASMYVWAKIPEPYAAMGSLEFAKKLLNEAKVCVSPGIGFGDYGDTHVRFALIENRDRIRQAIRGIKAMFRADGLLPASSKHIHENAE”, the “total protein half-life in vivo” value by setting is: under setting [1], 4.48 ± 0.37 h; under setting [2], 4.17 ± 0.25 h; under setting [3], 2.21 ± 0.2 h; under setting [4], 2.27 ± 0.23 h; under setting [5], 2.22 ± 0.062 h; under setting [6], 2.43 ± 0.15 h. In addition, the “total protein half-life in vivo” value under setting [7] came to 3.92 ± 0.59 h; the “total protein half-life in vivo” value under setting [8] amounted to 7.44 ± 1.7 h; the “total protein half-life in vivo” value under setting [9] was determined as 2.28 ± 0.1 h; the “total protein half-life in vivo” value under setting [10] is 2.92 ± 0.049 h; the “total protein half-life in vivo” value under setting [11] was determined as 4.75 ± 0.82 h; the “total protein half-life in vivo” value under setting [12] is 7.31 ± 0.3 h.
